From patent US20030211979A1, “FAP-activated anti-tumor compounds” (Boehringer Ingelheim Pharma GmbH & Co. KG, priority 2002, published 2003)

Key:
FAP = target: T1, FAP (Homo sapiens, UniProt Q12884); assay: Assay for cleavage of MNA substrates by FAP; type: biochemical; conditions: 1 ng FAP enzyme (extract of FAP-transfected 293 cells), 20 μl 2.5 mM substrate, 1 hour at room temperature, fluorescence Ex 355/Em 405 nm, FAP-negative 293 control subtracted
T1 construct: expressed in transfected cells; host or cells: 293 cells stably transfected with FAP; cell extract
T1 sequence (Q12884 1-760): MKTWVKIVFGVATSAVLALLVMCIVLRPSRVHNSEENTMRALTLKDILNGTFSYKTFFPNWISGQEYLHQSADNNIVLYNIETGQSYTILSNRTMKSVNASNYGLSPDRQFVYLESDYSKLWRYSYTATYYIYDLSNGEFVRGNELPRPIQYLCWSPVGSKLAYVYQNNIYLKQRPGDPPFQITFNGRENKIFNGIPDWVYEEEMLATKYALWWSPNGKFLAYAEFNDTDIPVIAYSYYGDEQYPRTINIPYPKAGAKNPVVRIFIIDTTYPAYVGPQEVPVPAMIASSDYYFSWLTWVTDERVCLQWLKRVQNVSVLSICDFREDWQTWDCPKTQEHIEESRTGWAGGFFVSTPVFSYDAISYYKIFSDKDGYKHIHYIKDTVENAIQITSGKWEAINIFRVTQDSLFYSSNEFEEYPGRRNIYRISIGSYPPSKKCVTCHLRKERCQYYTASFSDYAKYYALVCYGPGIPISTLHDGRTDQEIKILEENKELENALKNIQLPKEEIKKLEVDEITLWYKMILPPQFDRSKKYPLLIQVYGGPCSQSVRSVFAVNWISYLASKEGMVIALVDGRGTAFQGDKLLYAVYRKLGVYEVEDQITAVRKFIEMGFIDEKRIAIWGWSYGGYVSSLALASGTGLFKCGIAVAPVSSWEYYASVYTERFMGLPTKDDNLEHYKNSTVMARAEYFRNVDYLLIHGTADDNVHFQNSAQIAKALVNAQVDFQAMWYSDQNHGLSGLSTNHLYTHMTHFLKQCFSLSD
Protocol: Assay for Cleavage of MNA Substrates by FAP: Buffer A: 100 mM Tris HCl pH 7.8, 100 mM NaCl Cell extract from 293 cells stably transfected with FAP prepared as described (see Park, et al., Fibroblast Activation Protein, a Dual Specificity Serine Protease expressed in human tumor stromal fibroblasts. (1999) J. Biol. Chem. 36505-12.). A similar extract was also prepared from parental 293 control cells without FAP. The FAP concentration in the FAP-transfected cell extract was estimated by immunoassay and 1 ng enzyme (diluted in buffer A) was used per assay. FAP-negative 293 control cell extract was used at the same dilution (also in buffer A) as a negative control. Substrate was initially dissolved in dimethylformamide at a concentration of 200 mM and diluted in buffer A to a final concentration of 2.5 mM. A few substrates were not soluble at this concentration and had to be diluted further. Assay Conditions: 10 μl 10% DMSO in buffer A 70 μl diluted FAP cell extract containing 1 ng FAP enzyme (OR control 293 cell extract without FAP) 20 μl 2.5 mM substrate Mix, incubate at room temperature for 1 hour, and measure fluorescence in Fluorostar fluorimeter at the following wavelengths: MNA conjugates: Excitation: 355 nm, Emission: 405 nm. The fluorescence measured in the samples treated with control 293 control cell extracts without FAP is subtracted from the values measured in the samples treated with 1 ng FAP enzyme.

[1] = Solubility test in a phosphate buffer; type: physicochemical
From the text: The solubilities of the compounds of formula
in a phosphate buffer have been compared.

Compound | Cleavage (FAP) [µM] | solubility [1] [µg/mL]
[2-(3-Carboxymethyl-phenyl)-acetyl]-N-MeIle-Ala-Gly-Pro-MNA (IAGP; N-terminal 3-carboxymethylphenylacetyl, N-methyl; C-terminal MNA; printed: Ile-Ala-Gly-Pro-) | 15.36 | –
[2-(3-Carboxymethyl-phenyl)-acetyl]-Pro-Ala-Gly-Pro-MNA (PAGP; N-terminal 3-carboxymethylphenylacetyl; C-terminal MNA; printed: Pro-Ala-Gly-Pro-) | 2.80 | –
COc1cccc2c1C(=O)c1c(O)c3c(c(O)c1C2=O)C[C@@](O)(C(=O)CO)C[C@@H]3OC1CC(NC(=O)[C@@H]2CCCN2C(=O)CNC(=O)[C@H](C)NC(=O)[C@@H]2CCCN2C(=O)Cc2ccccc2)C(O)C(C)O1 (some centres unmarked) [B, reference compound] | – | < 2000
[2-(4-Carboxymethyl-phenyl)-acetyl]-Aze-Ala-Gly-Pro-MNA | 9.54 | –
[2-(3-Carboxymethyl-phenyl)-acetyl]-N-MeLeu-Ala-Gly-Pro-MNA (LAGP; N-terminal 3-carboxymethylphenylacetyl, N-methyl; C-terminal MNA; printed: Leu-Ala-Gly-Pro-) | 12.00 | –
[2-(4-Carboxymethyl-phenyl)-acetyl]-Pro-Ala-Gly-Pro-MNA (PAGP; N-terminal 4-carboxymethylphenylacetyl; C-terminal MNA; printed: Pro-Ala-Gly-Pro-) | 7.25 | –
[2-(4-Carboxymethyl-phenyl)-acetyl]-N-MeIle-Ala-Gly-Pro-MNA (IAGP; N-terminal 4-carboxymethylphenylacetyl, N-methyl; C-terminal MNA; printed: Ile-Ala-Gly-Pro-) | 16.36 | –
[2-(4-Carboxymethyl-phenyl)-acetyl]-N-MeVal-Ala-Gly-Pro-MNA (VAGP; N-terminal 4-carboxymethylphenylacetyl, N-methyl; C-terminal MNA; printed: Val-Ala-Gly-Pro-) | 13.39 | –
[2-(2-Carboxymethyl-phenyl)-acetyl]-Pro-Ala-Gly-Pro-MNA (PAGP; N-terminal 2-carboxymethylphenylacetyl; C-terminal MNA; printed: Pro-Ala-Gly-Pro-) | 0.94 | –
[2-(4-Carboxymethyl-phenyl)-acetyl]-N-MeLeu-Ala-Gly-Pro-MNA (LAGP; N-terminal 4-carboxymethylphenylacetyl, N-methyl; C-terminal MNA; printed: Leu-Ala-Gly-Pro-) | 13.97 | –
[2-(3-Carboxymethyl-phenyl)-acetyl]-N-MeVal-Ala-Gly-Pro-MNA (VAGP; N-terminal 3-carboxymethylphenylacetyl, N-methyl; C-terminal MNA; printed: Val-Ala-Gly-Pro-) | 9.52 | –
